From patent US20240294650A1 (Alector, published 2024)
Residue numbers refer to the chain shown, from its start.

T1: recombinant cynomolgus MerTK extracellular domain (cynomolgus, UniProt Q12866 21-505 (human entry))
T1 construct: also called cyno MerTK ECD; not shown: polyHis or TEVS/Thrombin/murine IgG2a-Fc tag
T1 chain: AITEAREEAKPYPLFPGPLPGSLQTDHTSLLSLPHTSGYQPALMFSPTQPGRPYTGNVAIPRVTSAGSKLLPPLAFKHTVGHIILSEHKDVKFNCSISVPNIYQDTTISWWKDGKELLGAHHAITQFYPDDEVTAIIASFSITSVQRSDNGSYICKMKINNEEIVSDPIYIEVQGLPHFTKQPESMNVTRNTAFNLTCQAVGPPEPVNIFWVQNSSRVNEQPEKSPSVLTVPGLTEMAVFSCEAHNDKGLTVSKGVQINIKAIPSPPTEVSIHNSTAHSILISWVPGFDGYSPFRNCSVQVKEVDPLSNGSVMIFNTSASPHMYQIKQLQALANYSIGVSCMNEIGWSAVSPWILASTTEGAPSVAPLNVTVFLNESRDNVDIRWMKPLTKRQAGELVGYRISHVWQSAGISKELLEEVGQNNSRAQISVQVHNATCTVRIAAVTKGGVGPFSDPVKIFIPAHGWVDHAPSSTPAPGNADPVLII

T2: Recombinant human MerTK-human Fc Chimera protein (human, UniProt Q12866 26-499, limits assumed)
T2 construct: bought construct; also called MerTK-Fc (R&D systems, Cat #391-MR-100)
T2 sequence: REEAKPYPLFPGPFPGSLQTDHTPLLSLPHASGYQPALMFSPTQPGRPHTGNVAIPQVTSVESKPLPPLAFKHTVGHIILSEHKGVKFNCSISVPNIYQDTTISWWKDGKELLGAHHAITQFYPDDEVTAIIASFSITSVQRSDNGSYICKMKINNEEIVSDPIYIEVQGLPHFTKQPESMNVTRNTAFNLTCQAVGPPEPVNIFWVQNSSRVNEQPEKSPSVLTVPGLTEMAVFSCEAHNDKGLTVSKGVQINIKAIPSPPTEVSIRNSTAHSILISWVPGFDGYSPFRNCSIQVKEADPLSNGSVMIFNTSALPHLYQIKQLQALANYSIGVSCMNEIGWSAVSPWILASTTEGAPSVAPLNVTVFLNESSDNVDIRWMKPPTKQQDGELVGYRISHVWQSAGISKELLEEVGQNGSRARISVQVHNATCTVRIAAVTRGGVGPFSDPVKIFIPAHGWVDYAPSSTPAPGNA

B1: MTK-208 (antibody, human IgG1, V domains shown)
VH: QVQLQQPGAELVVPGASVRLSCKASGYTFINYWMHWVKQRPGQGLEWIGEIDPSDSYANYNQKFKDKSTLSLDKSSSTAYMQLSSLTSEDSAVYYCARCDYYGRLDYWGQGTTLTVSS
VL: QVVLTQSPAIMSASPGEKVTITCSASSSVSYMLWFQQKPGTSPKLWIYSTSNLASGVPARFSGSGSGTSYSLTISRLEAEDAATYYCQQRSSYPPITFGAGTKLELK
B2: MTK-215 (antibody, human IgG1, V domains shown)
VH: EVQLVESGGGLVKPGGSLKLSCAASGFIFSDYGMHWVRQAPEKGLEWVAYISSGSSTIYYGDTVKGRFTISRDNAKNTLFLQMTSLRSEDTAMYYCAKGGRYGAMDYWGHGTSVTVSS
VL: DIVLTQSPATLSVTPGDSVSLSCRASQSISNNLHWYQQKSHESPRLLIKNPSQSISGIPSRFGARGSGTDFTLIINSVETEDLGVYFCQQSNSWPFTFGSGTKLEIK
B3: MTK-221 (antibody, human IgG1, V domains shown)
VH: QVTLKESGPGMLQSSQTLSLTCSFSGFSLSTSGMGVSWIRQPSGKGLEWLAHIYWDDDKRYNTSLQSRLTISKDTSRNQVFLKITSVDTADTATYFCGRLGAYSAFPYYFDYWGQGTTLTVSS
VL: DIQMTQSPSSLSASLGGKVTITCKASQDIHKHIAWYQHKPGKGPRLLIHYTSTLQPGIPSRFSGSGSGRDYSFSISNLEPEDLATYYCLQYDNLWTFGGGTKLEIK
B4: MTK-222 (antibody, human IgG1, V domains shown)
VH: QVQLQQSGADLMKPGASVKLSCKATGYTFTGYWIEWVKQRPGHGLEWIGEILTGSGSSNYNEKFKGKATFTADSSSNTAFMQLSSLTTEDSAIYYCAGSYYSNSWFPYWGQGSLVTVSA
VL: DIVLTQSPVSLAVSLGQRATISCRASESVDSYGSSFMHWYQQKPGQPPKLLIYRASSLESGIPARFSGSGSRTDFTLTINPVETDDVATYYCQQSNEDPRTFGGGTKLEIK
B5: MTK-225 (antibody, human IgG1, V domains shown)
VH: EVQLQQSGPELVKPGASVKIFCKASGYTFTAYNMDWVKQSHGKSLEWIGDINPNNGGTIYNQKFKGKATLTVDKSSSTAYMELRSLTSEDTAVYYCARRRRYGNTYYWYFDVWGTGTTVTVSS
VL: DIQMTQSPASLSVSVGETVTITCRASENIYSSLAWYQQKQGKSPQLLVYAATNLADGVPSRFSGSGSGTQFYLKINGLQSEDFGSYYCQHFWGTSYTFGGGTKLEIK
B6: MTK-231 (antibody, human IgG1, V domains shown)
VH: DVQLQESGPGLVKPSQSLSLTCSVTGYSITSGYYWNWIRQFPGNKLEWMGYISYDGTYNYHPSLKNRISITRDTSKNQFFLTLNSVTTEDTATFYCTRGGGYWGQGTSVTVSS
VL: DVVMTQTPLSLPVSLGDQASISCRSSQSLVHSDGNTYLHWYLQKPGQSPKLLIYKVSNRFSGVPDRFSGSGSGTDFTLKISRLEAEDLGIYFCSQTTHIPLTFGSGTKLEIK
B7: MTK-202 (antibody, human IgG1, V domains shown)
VH: EVQLVESGGGLVKPGGSLKLSCAASGFTFSDFGMHWVRQVPEKGLEWVAFISGGSNTIYYTDTVKGRFTISRDNAKNTLFLQMTSLRSEDTAMYYCVRNGNSFAYWGQGTLVTVSA
VL: NIMMTQSPSSLAVSAGEKVTMNCKSSQSVLYSSNQKNYLAWYQQKPGQSPKLLIYWASTRESGVPDRFTGSGSGTDFTLTISNIQAEDLAIYYCHQYFFSWTFGGGTKLEIK
B8: MTK-204 (antibody, human IgG1, V domains shown)
VH: EVQLVESGGGLVKPGGSLKLSCAASGFTFSDYGMHWVRQAPEKGLEWVAYISSGTSTIYYEDTVKGRFTISRDNAKNTLFLQMTSLRSEDTAMYYCARGGLLFDYWGQGTTLTVSS
VL: B7 VL with N22S, Y55Q, G74E, S82R, N83S, I84V, I91V, F99S
B9: MTK-210 (antibody, human IgG1, V domains shown)
VH: QVQLQQSGPELVKPGASVKISCKASDYEFSRSWMNWVKQRPGKGLEWIGRIYPGDGDTNYNGKFKGKATLTADKSSNTAYMQLNSLTSEDSAVYFCARKGGYYYSISNYFDYWGQGTTLTVSS
VL: QIVLTQSPAIMSASPGVKVTMTCSASSSVSYMHWYQQKPGSSPRLLIYDTSNLASGVPVRFSGSGSGTSYSLTISRMEAEDAATYYCQQWSSYPPYTFGGGTKLEIK
B10: MTK-206 (antibody, human IgG1, V domains shown)
VH: QVQLQQSGAELARPGASVKMSCKASGYTFTSYTMHWVKQRPGQGLEWIGYINPSSGYIKNSQKFKDKATLTADKSSSTAYMQLSSLTSEDSAVYYCARTVYGYYGSSPDYWGQGTTLTVSS
VL: DIQMTQSPSSLSASLGERVSLTCRASQDIGSNLNWLQQEPDGTIKRLIYATSSLESGVPKRFSGSRSGSDYSLTISSLESEDFVDYYCLQYDSSPWTFGGGTKLEIK
B11: MTK-212 (antibody, human IgG1, V domains shown)
VH: QVQLQQSGPELVKPGASVKISCKASGYAFSSSWVNWVKQRPGKGLEWIGRIYPGDGDSNYNGNFKGKATLTADKSSNTAYLQLSSLTSEDSAVYFCARKSHFIYYTLDYWGQGTPVTVSS
VL: DIVMTQSHKFKSTSVGDRVSIACKASQDVGTSVAWYQQKPGKSPKLLIYWASSRHTGVPDRFTGSGSGTDFTLTISNVQSEDLTDYFCQQYSTYPYTFGGGTKLEIK

What was measured:
[1] = biological target: T1, recombinant cynomolgus MerTK …; assay: SPR Carterra LSA
Experimental: Binding kinetics of anti-MerTK IgG1 antibodies of the present disclosure to human, cyno, and murine MerTK were evaluated using a Carterra LSA instrument (Carterra, Salt Lake City, UT). […] A HC200M sensor chip (Carterra) was activated using the single channel flow cell with a 7-minute injection of a 1:1:1 mixture of 100 mM MES pH 5.5, 100 mM sulfo-NHS, 400 mM EDC (all reconstituted in MES pH 5.5; 100 μl of each mixed in vial immediately before running assay). After switching to the multi-channel array flow cell, the antibodies were injected over the activated chip in three 96-spot arrays for 10 minutes each. The remaining unconjugated active groups on the chip were then blocked by injecting 1M Ethanolamine pH 8.5 (Carterra) for 7 minutes using the single channel flow cell. The resulting sensor chip contained three spots for each antibody, at three different densities. Two independent experiments were performed as follows, resulting in an N of between one and six determinations for each antibody. Spots that yielded less than 25 RU of analyte binding were excluded from further analysis.
After priming with running buffer (HBS-TE, Carterra) with 0.5 mg/ml BSA (Sigma), the immobilized anti-MerTK antibodies were tested for their ability to bind to several forms of recombinant MerTK extracellular domain, including human, cynomolgus, and mouse orthologs as described above. Estimates of affinity were generated by injecting each analyte over the entire antibody array using the single channel flow cell. MerTK analytes were diluted with running buffer, in a series of six, three-fold serial dilutions starting from 1 μM for human and cynomolgus MerTK, and 600 nM for mouse MerTK. Analytes were injected for 5 minutes, and dissociation was followed for 10 minutes. After each analyte injection, antibodies were regenerated with either Protein A/G Elution Buffer (Thermo) with 1M NaCl (Teknova), or with 10 mM Glycine pH 2.5. Three buffer blanks were run between each series (one species per series). Data were processed and analyzed using NextGenKIT high-throughput kinetics analysis software (Carterra).

[2] = biological target: T2, Recombinant human MerTK-human Fc …; assay: blocking ELISA, ProS-His on MerTK-Fc, Ab 66.6 nM, isotype=100%
Experimental: Briefly, rabbit anti-human IgG antibody (Jackson ImmunoResearch, Cat #309-005-008) was coated at 2 μg/ml onto high-protein binding plates at 4° C. overnight. After washing with 0.05% Tween20 in PBS three times, 5% BSA in PBS was added for 1 hour. Recombinant human MerTK-human Fe Chimera protein (R&D systems, Cat #391-MR-100) was added at 2 μg/ml for 1 hour and plates were washed before the addition of 40 μl of anti-MerTK hybridoma supernatants and 40 μl of His tag-conjugated recombinant Gas6 (R&D systems, Cat #885-GSB-050) at 3 μg/ml or His tag-conjugated recombinant ProS (R&D systems, Cat #9489-PS-100) at 20 μg/ml. After a further incubation for 1 hour, plates were washed and incubated for 1 hour with HRP-conjugated anti-6×His tagged antibody (Abcam, Cambridge, MA, Cat #ab1187). Plates were then washed and an HRP substrate, TMB, was added to develop the plates. The reaction was stopped by adding 50 μl 2N H₂SO₄ and the OD was measured using a spectrophotometer (BioTek).
Anti-MerTK antibodies were titrated to a final concentration from 66.6 nM to 4 pM and tested against anti-human MerTK antibody M6 (disclosed in WO2016/106221) or isotype control antibody.

Row | Binder | Ratio of KD for Cynomolgus vs Human MerTK [1] | Percent ProS ligand binding [2]
1 | B1 | 1.8 ratio | 71.7%
2 | B2 | 4.3 ratio | 81.6%
3 | B3 | 1.3 ratio | 72.8%
4 | B4 | 1 ratio | 88.2%
5 | B5 | 1.5 ratio | 186%
6 | B6 | 1.8 ratio | 152%
7 | B7 | 4.8 ratio | 53.4%
8 | B8 | 2.8 ratio | 101%
9 | B9 | 1.2 ratio | 116%
10 | B10 | 24.7 ratio | 132%
11 | B11 | 18.3 ratio | 45.8%
